Laboratory results: IntAct's records for PubMed 29039417

B1: Protein PTHB1 (Homo sapiens), Q3SYG4 (parent)
chain: MSLFKARDWWSTILGDKEEFDQGCLCLANVDNSGNGQDKIIVGSFMGYLRIFSPHPAKTGDGAQAEDLLLEVDLRDPVLQVEVGKFVSGTEMLHLAVLHSRKLCVYSVSGTLGNVEHGNQCQMKLMYEHNLQRTACNMTYGSFGGVKGRDLICIQSMDGMLMVFEQESYAFGRFLPGFLLPGPLAYSSRTDSFLTVSSCQQVESYKYQVLAFATDADKRQETEQQKLGSGKRLVVDWTLNIGEQALDICIVSFNQSASSVFVLGERNFFCLKDNGQIRFMKKLDWSPSCFLPYCSVSEGTINTLIGNHNNMLHIYQDVTLKWATQLPHIPVAVRVGCLHDLKGVIVTLSDDGHLQCSYLGTDPSLFQAPNVQSRELNYDELDVEMKELQKIIKDVNKSQGVWPMTEREDDLNVSVVVSPNFDSVSQATDVEVGTDLVPSVTVKVTLQNRVILQKAKLSVYVQPPLELTCDQFTFEFMTPDLTRTVSFSVYLKRSYTPSELEGNAVVSYSRPTDRNPDGIPRVIQCKFRLPLKLICLPGQPSKTASHKITIDTNKSPVSLLSLFPGFASQSDDDQVNVMGFHFLGGARITVLASKTSQRYRIQSEQFEDLWLITNELILRLQEYFEKQGVKDFACSFSGSIPLQEYFELIDHHFELRINGEKLEELLSERAVQFRAIQRRLLARFKDKTPAPLQHLDTLLDGTYKQVIALADAVEENQGNLFQSFTRLKSATHLVILLIALWQKLSADQVAILEAAFLPLQEDTQELGWEETVDAAISHLLKTCLSKSSKEQALNLNSQLNIPKDTSQLKKHITLLCDRLSKGGRLCLSTDAAAPQTMVMPGGCTTIPESDLEERSVEQDSTELFTNHRHLTAETPRPEVSPLQGVSE
partner: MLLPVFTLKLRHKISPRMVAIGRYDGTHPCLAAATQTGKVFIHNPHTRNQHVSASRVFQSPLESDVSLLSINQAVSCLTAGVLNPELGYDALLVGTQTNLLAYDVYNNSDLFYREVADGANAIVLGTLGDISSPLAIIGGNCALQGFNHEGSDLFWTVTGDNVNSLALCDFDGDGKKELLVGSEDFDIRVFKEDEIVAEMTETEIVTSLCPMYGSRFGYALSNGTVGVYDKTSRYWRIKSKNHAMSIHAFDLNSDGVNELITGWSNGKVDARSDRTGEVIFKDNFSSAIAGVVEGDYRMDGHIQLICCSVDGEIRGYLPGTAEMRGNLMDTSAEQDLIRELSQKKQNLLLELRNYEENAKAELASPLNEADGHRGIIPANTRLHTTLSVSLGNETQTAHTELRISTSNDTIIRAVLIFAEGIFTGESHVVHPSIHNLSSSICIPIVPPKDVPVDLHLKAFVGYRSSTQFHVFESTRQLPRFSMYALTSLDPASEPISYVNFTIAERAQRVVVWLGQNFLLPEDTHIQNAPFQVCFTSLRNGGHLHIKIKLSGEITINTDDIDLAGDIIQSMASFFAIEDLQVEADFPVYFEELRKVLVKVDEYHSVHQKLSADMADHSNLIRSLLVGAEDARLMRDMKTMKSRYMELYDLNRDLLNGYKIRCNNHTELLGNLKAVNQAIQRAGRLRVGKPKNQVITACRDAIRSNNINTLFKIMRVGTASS

Variants of: B1
Conditions: with bbs2_human BBS2, Q9BXC9

Variant	effect of a mutation on the interaction
S886A	with no effect
V838A	disrupting interaction strength
W768K	with no effect
V706K	with no effect
R854E	with no effect
P875E	with no effect
D573E	with no effect
P691L	disrupting interaction strength
P691E	with no effect
G565E	with no effect
G565K	with no effect
E607K	with no effect
I707A	with no effect
F563E	with no effect
H867A	with no effect
K821E	with no effect
K821A	with no effect
Q760E	with no effect
Q760A	with no effect
G585K	with no effect
W741E	with no effect
S723E	with no effect
D409K	with no effect

Variant	effect of a mutation on the interaction
L766E	with no effect
L766A	with no effect
Q748L	disrupting interaction strength
F421A	with no effect
Q798K	with no effect
T468K	with no effect
D517E	with no effect
K443A	with no effect
L436E	with no effect
L436A	with no effect
P497E	with no effect
L559R	disrupting interaction strength
H869A	with no effect
R598L	disrupting interaction strength
I846A	with no effect
G584E	with no effect
P438K	with no effect
E660A	with no effect
Q643A	with no effect
Q574E	with no effect
D747E	with no effect
I523E	with no effect
L531K	with no effect

Variant	effect of a mutation on the interaction
S785K	with no effect
N448A	with no effect
K594E	with no effect
P877A	with no effect
V575E	with no effect
A775E	with no effect
N658E	with no effect
L648A	with no effect
L642K	with no effect
Q722A	with no effect
V522E	with no effect
Q462K	with no effect
Q462A	with no effect
H732E	with no effect
Q524A	with no effect
I451E	with no effect
L536E	with no effect
L536A	with no effect
D480E	with no effect
D480A	with no effect
A670T	disrupting interaction strength
D830K	with no effect
K661A	with no effect

Variant	effect of a mutation on the interaction
A750K	with no effect
Q858K	with no effect
L680K	with no effect
D608K	with no effect
D608E	with no effect
E431K	with no effect
L583K	with no effect
V440K	with no effect
L609K	with no effect
L609E	with no effect
D470E	with no effect
V577E	with no effect
V577A	with no effect
S828A	with no effect
K687E	with no effect
N794K	with no effect
D435K	with no effect
D435E	with no effect
P564K	with no effect
G433A	with no effect
L740A	with no effect
S729A	with no effect
